Results: PMC10403523
pKd, pKi: −log10 of the molar value. Blank lines part the entries; values can stand above or below the substance they belong to.

Tests used:
[1] = molecular target: 29N59 mononucleosome: recombinant Xenopus laevis histone octamer on 601 DNA with 29 and 59 bp of flanking DNA (Xenopus laevis); assay: native gel or EMSA; apparent KD; 6.7 nM 29N59 nucleosomes, WT or ΔAT SWI/SNF varied from 1.3 to 23 nM; 4% native polyacrylamide gel (79:1)
[2] = system: yeast SWI/SNF complex (WT) (Saccharomyces cerevisiae); assay: EMSA; conditions: apparent KD, Kd EMSA: 6.7 nM DNA or nucleosome, 1.3-23 nM SWI/SNF, 4% native PAGE (79:1), Methods: prebinding 30 C, 15 min, gel in 0.5x TBE, binding buffer, salt and pH not …
[3] = system: yeast SWI/SNF complex (WT) (Saccharomyces cerevisiae); assay: competition; conditions: EMSA competition against 601 DNA; Kd EMSA: 6.7 nM DNA or nucleosome, 1.3-23 nM SWI/SNF, 4% native PAGE (79:1); Methods: prebinding 30 C, 15 min, gel in 0.5x …; binding buffer, salt and pH not

pKd [1]: 7.69
Substance: yeast SWI/SNF complex with both AT-hooks of Snf2 deleted (from UniProt P22082 1-1703; P18480 1-905; Q12406 1-477; P09547 1-1314; P18888 1-332)

Substance: 29N59 nucleosome
pKd ([2]; 6.7 nM nucleosome, recombinant Xenopus laevis histone octamer): 8.12

Substance: pUC19 plasmid
pKi [3]: 7.92

Substance: 235 bp 601 DNA
pKd ([2]; 6.7 nM DNA): 8.10

pKd [1]: 8.12
Substance: yeast SWI/SNF complex, wild type (from UniProt P22082 1-1703; P18480 1-905; Q12406 1-477; P09547 1-1314; P18888 1-332)
